Numbering of substitutions follows the chain as printed.
T1: SOST (Homo sapiens (Human), UniProt Q9BQB4 24-213)
T1 sequence: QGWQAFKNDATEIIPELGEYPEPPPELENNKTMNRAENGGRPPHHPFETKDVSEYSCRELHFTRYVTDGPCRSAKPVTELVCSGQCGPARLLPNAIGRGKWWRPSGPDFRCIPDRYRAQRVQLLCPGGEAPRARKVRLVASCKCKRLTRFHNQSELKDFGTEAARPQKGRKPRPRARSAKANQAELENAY

T2: NBL1 (Homo sapiens (Human), UniProt P41271 17-181)
T2 sequence: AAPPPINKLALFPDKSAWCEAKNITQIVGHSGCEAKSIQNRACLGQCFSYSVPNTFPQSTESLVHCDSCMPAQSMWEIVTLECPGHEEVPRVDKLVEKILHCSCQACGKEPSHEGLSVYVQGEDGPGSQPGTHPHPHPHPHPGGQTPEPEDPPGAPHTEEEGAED

T3: DKK1 (Homo sapiens (Human), UniProt O94907 32-266)
T3 sequence: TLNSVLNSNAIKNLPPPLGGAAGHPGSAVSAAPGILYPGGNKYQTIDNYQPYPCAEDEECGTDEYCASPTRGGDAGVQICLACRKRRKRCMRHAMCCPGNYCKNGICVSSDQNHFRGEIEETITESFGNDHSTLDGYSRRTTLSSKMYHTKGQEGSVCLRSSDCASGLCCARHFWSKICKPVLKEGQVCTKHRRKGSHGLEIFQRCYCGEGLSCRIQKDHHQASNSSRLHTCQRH

T4: AGR2 (Homo sapiens (Human), UniProt O95994 21-175)
T4 sequence: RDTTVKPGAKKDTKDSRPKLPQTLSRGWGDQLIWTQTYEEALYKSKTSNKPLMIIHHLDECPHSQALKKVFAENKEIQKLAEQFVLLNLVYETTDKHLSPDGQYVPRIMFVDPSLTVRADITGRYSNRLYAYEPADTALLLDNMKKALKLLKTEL

T5: LRRN4 (Homo sapiens (Human), UniProt Q8WUT4 19-679)
T5 sequence: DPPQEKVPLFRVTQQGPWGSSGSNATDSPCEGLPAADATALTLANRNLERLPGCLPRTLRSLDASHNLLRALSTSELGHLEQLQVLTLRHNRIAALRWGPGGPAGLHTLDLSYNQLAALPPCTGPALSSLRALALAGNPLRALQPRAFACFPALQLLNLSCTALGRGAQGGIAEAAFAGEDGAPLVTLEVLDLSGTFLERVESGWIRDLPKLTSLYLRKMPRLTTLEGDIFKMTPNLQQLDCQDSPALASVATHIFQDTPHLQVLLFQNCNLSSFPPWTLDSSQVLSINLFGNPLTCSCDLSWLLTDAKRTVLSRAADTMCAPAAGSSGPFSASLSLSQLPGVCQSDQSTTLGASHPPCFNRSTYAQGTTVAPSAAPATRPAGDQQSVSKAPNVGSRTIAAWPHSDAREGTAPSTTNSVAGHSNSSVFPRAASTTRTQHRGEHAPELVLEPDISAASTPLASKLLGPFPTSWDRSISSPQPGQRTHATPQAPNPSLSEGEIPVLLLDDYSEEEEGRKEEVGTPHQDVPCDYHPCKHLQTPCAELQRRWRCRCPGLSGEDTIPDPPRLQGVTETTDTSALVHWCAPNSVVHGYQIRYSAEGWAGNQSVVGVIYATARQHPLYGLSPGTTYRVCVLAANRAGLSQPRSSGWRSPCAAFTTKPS

T6: TPBG (Homo sapiens (Human), UniProt Q13641 32-355)
T6 sequence: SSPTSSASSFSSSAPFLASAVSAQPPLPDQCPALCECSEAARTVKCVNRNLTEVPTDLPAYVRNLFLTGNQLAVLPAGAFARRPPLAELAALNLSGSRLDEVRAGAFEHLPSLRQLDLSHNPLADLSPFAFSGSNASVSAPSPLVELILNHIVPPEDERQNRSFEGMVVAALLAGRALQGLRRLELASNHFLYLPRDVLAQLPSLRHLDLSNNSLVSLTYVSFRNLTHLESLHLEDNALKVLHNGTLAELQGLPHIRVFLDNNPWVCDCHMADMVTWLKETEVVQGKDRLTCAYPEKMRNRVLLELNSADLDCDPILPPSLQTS

T7: SCARF1 (Homo sapiens (Human), UniProt Q14162 20-421)
T7 sequence: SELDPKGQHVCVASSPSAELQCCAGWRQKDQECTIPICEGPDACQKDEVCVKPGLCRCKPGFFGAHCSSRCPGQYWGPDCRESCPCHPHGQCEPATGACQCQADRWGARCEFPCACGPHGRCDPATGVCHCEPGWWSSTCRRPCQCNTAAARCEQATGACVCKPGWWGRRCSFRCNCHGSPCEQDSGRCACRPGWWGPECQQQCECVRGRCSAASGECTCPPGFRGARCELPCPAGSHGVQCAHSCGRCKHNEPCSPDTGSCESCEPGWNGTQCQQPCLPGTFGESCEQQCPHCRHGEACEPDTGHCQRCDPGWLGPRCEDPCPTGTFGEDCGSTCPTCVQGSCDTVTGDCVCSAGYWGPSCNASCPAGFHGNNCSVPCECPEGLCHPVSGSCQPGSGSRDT

T8: SPOCK2 (Homo sapiens (Human), UniProt Q92563 23-424)
T8 sequence: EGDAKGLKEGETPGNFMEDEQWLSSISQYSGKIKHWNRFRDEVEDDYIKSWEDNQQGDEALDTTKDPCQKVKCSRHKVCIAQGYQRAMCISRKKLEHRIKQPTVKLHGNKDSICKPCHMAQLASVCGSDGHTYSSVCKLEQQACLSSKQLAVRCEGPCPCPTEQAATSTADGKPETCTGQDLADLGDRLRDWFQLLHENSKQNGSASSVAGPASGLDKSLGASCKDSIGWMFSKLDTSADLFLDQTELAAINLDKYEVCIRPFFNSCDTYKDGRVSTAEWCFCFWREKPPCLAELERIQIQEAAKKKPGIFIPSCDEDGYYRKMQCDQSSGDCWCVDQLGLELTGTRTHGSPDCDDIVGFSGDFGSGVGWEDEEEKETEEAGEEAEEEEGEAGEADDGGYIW

B1: PD1-41C9 (antibody, V domains shown)
VH: QMQLVESGGGVVQPGRSLRLSCAASGFTFSSYAMHWVRQAPGKGLEWVAVISYDGSNKYYADSVKGRFTISRDNSKNTLYLQMNRLRSEDTAVYYCTTTTFDSWGQGTLITVSS
VL: DIVMTQTPLSLPVTPGEAASISCRSSQSLLDSEDGNTYLDWYLQKPGQSPQLLIYTLSHRASGVPDRFSGSGSGTDFTLKISRVAAEDVGLYYCLQRMGFPYTFGQGTKLDIK
notes: scFv-phage in the screening ELISA; whole IgG in the other assays
B2: PD1-49A2 (antibody, V domains shown)
VH: B1 VH with M2V, S75P, R85S, S88A, Q106R, I110V
VL: B1 VL with T7S, A18P, L30F, E33D, A85E, L91I, L110V, D111E
notes: scFv-phage in the screening ELISA; whole IgG in the other assays; also called Parent 49A2
B3: PD1-45D6 (antibody, V domains shown)
VH: QVQLVESGGGVVQPGRSLRLSCAASGFTFSSYAMHWVRQVPGKGLEWVAVISYDGNDKYYADSVKGRFTISRDNSKNTLYLQMNSLRAEDTAVYYCVPTTFEYWGQGSQVTVSS
VL: DIVMTQTPLSLPVTPGEAASISCRSSQSLLDSDDGKTYLDWYLQKPGQSPQLLIYTLSYRASGVPDRFSGSGSGTEFNLRISRVEAEDVGIYYCMQRVEFPFTFGQGTKLDIK
notes: as for B1

Target: T1, SOST
Test: ELISA

| Binder | binding result |
| --- | --- |
| B1 | no binding (tested: 1 ug/ml) |
| B2 | no binding (tested: 1 ug/ml) |
| B3 | no binding (tested: 1 ug/ml) |

Target: T2, NBL1
Test: ELISA

| Binder | binding result |
| --- | --- |
| B1 | no binding (tested: 1 ug/ml) |
| B2 | no binding (tested: 1 ug/ml) |
| B3 | no binding (tested: 1 ug/ml) |

Target: T3, DKK1
Test: ELISA

| Binder | binding result |
| --- | --- |
| B1 | no binding (tested: 1 ug/ml) |
| B2 | no binding (tested: 1 ug/ml) |
| B3 | no binding (tested: 1 ug/ml) |

Target: T4, AGR2
Test: ELISA

| Binder | binding result |
| --- | --- |
| B1 | no binding (tested: 1 ug/ml) |
| B2 | no binding (tested: 1 ug/ml) |
| B3 | no binding (tested: 1 ug/ml) |

Target: T5, LRRN4
Test: ELISA

| Binder | binding result |
| --- | --- |
| B1 | no binding (tested: 1 ug/ml) |
| B2 | no binding (tested: 1 ug/ml) |
| B3 | no binding (tested: 1 ug/ml) |

Target: T6, TPBG
Test: ELISA

| Binder | binding result |
| --- | --- |
| B1 | no binding (tested: 1 ug/ml) |
| B2 | no binding (tested: 1 ug/ml) |
| B3 | no binding (tested: 1 ug/ml) |

Target: T7, SCARF1
Test: ELISA

| Binder | binding result |
| --- | --- |
| B1 | no binding (tested: 1 ug/ml) |
| B2 | no binding (tested: 1 ug/ml) |
| B3 | no binding (tested: 1 ug/ml) |

Target: T8, SPOCK2
Test: ELISA

| Binder | binding result |
| --- | --- |
| B1 | no binding (tested: 1 ug/ml) |
| B2 | no binding (tested: 1 ug/ml) |
| B3 | no binding (tested: 1 ug/ml) |

Source: patent US20190248900A1 (Y BIOLOGICS, published 2019)
